Measurements taken from US20130251728A1 (Regeneron, published 2013).

Legend:
hGCGR-mmh [1] = biological target: T1, hGCGR-mmh (human); test: SPR Biacore T100, 37C, mAb captured, antigen flowed
T1 construct: also called REGN547; monovalent hGCGR
T1 chain: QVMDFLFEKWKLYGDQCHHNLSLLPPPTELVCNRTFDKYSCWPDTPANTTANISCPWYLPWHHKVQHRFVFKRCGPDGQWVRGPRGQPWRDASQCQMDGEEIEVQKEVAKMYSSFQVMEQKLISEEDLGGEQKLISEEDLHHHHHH
Protocol: (§1) Measurements were conducted on a T100 Biacore instrument. Antibodies were captured onto the Biacore sensor chip surface via a covalently-linked anti-human kappa antibody capture surface, and the soluble GCGR proteins were applied to the surface either in a monovalent (hGCGR expressed with a myc-myc-hexa-histidine C-terminal tag) or bivalent (hGCGR and MfGCGR expressed with an N-terminal Fc fusion) format.
(§2) Binding dissociation equilibrium constants and dissociative half-lives were calculated from the kinetic rate constants as: KD=kd/kₐ; t_{1/2}=(In2/kd).

hGCGR-hFc [2] = biological target: T2, hGCGR-hFc (human); test: as above
T2 construct: also called REGN316
Protocol: as §1, §2

mfGCGR-hFc [3] = biological target: T3, mfGCGR-hFc (cynomolgus monkey (Macaca fascicularis)); test: as above
T3 construct: also called mfGCGR-N-terminal hFc
Protocol: as §1, §2

hGCGR-mmh [4] = biological target: T1, hGCGR-mmh; test: SPR Biacore T100, 25C, mAb captured, antigen flowed
Protocol: as §1, §2

hGCGR-hFc [5] = biological target: T2, hGCGR-hFc; test: as above
Protocol: as §1, §2

mfGCGR-hFc [6] = biological target: T3, mfGCGR-hFc; test: as above
Protocol: as §1, §2

[7] = biological target: mouse GCGR (full-length, on HEK293 reporter cells) (mouse, UniProt Q61606 27-485); test: cell-based or functional assay
[8] = biological target: rat GCGR (full-length, on transiently transfected HEK293 reporter cells) (rat, UniProt P30082 27-485); test: cell-based or functional assay
[9] = biological target: human GCGR (full-length, on HEK293 reporter cells) (human, UniProt P47871 27-477); test: cell-based or functional assay
[10] = biological target: T4, monkey (Macaca fascicularis) GCGR (full-length, on HEK293 reporter cells) (monkey (Macaca fascicularis), UniProt P47871 26-477 (human entry)); test: cell-based or functional assay
T4 chain: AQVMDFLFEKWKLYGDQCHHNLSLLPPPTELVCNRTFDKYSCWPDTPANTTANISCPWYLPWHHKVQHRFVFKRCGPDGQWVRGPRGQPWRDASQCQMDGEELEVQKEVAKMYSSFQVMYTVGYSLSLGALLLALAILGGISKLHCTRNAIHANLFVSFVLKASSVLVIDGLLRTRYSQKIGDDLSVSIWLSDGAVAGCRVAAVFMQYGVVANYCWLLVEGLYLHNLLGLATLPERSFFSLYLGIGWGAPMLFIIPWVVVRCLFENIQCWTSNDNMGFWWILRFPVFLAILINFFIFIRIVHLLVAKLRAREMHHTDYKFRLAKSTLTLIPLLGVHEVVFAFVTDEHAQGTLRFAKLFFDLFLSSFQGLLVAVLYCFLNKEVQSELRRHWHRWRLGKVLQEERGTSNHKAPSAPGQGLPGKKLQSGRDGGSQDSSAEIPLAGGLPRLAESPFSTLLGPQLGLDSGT

T2 sequence (chain, as listed by the source limits assumed): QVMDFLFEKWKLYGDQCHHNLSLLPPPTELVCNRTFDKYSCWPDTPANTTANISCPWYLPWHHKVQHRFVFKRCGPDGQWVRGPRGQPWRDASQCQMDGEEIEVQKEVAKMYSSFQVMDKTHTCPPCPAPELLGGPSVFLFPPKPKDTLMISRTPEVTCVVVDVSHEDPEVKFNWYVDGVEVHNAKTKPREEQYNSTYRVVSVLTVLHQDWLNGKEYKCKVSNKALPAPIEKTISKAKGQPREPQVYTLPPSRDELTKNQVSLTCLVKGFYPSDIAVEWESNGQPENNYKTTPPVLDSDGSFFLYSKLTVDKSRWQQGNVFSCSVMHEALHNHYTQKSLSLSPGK
T3 sequence (chain, as listed by the source limits assumed): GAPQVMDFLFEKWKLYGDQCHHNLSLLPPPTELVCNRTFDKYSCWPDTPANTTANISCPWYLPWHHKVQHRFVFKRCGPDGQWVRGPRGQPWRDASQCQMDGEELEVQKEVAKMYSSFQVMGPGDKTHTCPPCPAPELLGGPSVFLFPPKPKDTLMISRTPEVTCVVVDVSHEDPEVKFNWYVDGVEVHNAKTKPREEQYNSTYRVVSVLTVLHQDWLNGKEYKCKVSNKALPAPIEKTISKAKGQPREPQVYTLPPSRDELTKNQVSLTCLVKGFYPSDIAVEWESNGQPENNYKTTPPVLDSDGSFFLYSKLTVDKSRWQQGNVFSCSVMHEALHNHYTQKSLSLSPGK
Chain of human GCGR (full-length, on HEK293 reporter cells) (P47871 27-477): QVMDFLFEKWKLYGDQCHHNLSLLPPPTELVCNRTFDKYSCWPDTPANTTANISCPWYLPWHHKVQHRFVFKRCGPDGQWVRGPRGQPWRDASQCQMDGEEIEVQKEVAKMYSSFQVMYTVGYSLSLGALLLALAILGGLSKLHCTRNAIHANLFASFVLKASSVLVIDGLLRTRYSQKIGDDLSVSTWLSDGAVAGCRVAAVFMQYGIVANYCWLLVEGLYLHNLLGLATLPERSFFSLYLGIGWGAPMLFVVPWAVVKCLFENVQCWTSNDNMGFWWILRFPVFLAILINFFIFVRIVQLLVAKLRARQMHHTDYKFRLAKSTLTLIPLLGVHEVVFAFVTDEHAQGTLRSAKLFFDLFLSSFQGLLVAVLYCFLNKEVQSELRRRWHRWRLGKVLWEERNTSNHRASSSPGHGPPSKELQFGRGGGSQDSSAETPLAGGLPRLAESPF
Chain of mouse GCGR (full-length, on HEK293 reporter cells) (Q61606 27-485 limits assumed): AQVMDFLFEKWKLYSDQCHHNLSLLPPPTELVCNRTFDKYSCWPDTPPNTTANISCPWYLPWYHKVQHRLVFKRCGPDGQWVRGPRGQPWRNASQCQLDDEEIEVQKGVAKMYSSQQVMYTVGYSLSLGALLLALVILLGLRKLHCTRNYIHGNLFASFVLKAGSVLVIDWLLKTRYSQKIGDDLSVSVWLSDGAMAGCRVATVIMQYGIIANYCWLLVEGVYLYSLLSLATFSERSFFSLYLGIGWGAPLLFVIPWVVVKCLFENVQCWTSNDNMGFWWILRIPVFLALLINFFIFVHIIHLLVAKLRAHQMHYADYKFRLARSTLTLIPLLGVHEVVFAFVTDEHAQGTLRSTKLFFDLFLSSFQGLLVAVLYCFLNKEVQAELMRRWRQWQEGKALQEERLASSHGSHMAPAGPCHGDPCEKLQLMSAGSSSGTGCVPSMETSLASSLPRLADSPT
Chain of rat GCGR (full-length, on transiently transfected HEK293 reporter cells) (P30082 27-485 limits assumed): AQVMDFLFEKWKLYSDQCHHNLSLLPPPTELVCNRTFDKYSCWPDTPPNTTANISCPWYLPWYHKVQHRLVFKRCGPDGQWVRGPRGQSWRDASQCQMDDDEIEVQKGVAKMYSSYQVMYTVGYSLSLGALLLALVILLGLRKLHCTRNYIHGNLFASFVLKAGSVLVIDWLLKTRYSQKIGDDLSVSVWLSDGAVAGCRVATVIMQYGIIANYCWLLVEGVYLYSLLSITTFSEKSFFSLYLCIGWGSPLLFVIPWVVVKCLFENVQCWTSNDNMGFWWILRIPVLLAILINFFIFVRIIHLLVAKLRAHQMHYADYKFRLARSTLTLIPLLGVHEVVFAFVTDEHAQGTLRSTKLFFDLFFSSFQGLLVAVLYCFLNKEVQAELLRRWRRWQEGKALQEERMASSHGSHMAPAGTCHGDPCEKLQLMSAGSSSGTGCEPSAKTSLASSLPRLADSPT

B1: H4H1321P (antibody, V domains shown)
VH: QVQLVESGGGVVQPGRSLRLSCAASGFTFSSYDMHWVRQAPGKGLEWVAVISSDGRDKYYVDSVKGRFTISRDNSKNTLYLQMNSLRAEDTAVYYCAKEMVYYDILTGYHNYYGMDVWGQGTTVTVS
VL: DIQMTQSPSSLSASVGDRVTITCRASQGINNYLAWFQQKPGKAPKSLIHTASSLQSGVPSKFSGSGSGTDFTLTISSLQPEDFATYYCQQYNTYPLTFGGGTKVEIK
notes: Fully human anti-GCGR antibody; the controls are called isotype-matched hIgG4
Kd (hGCGR-mmh [1]): 12.8 nM
T½ (hGCGR-mmh [1]): 1 min
koff (hGCGR-mmh [1]): 0.0202 s⁻¹
kon (hGCGR-mmh [1]): 1.58e+06 M⁻¹ s⁻¹
Kd (hGCGR-hFc [2]): 0.077 nM
T½ (hGCGR-hFc [2]): 1.77 h
koff (hGCGR-hFc [2]): 0.000109 s⁻¹
kon (hGCGR-hFc [2]): 1.41e+06 M⁻¹ s⁻¹
Kd (mfGCGR-hFc [3]): 0.0347 nM
T½ (mfGCGR-hFc [3]): 2.53 h
koff (mfGCGR-hFc [3]): 7.59e-05 s⁻¹
kon (mfGCGR-hFc [3]): 2.19e+06 M⁻¹ s⁻¹
Kd (hGCGR-mmh [4]): 3.54 nM
T½ (hGCGR-mmh [4]): 3 min
koff (hGCGR-mmh [4]): 0.00374 s⁻¹
kon (hGCGR-mmh [4]): 1.06e+06 M⁻¹ s⁻¹
Kd (hGCGR-hFc [5]): 0.238 nM
T½ (hGCGR-hFc [5]): 0.683 h
koff (hGCGR-hFc [5]): 0.000285 s⁻¹
kon (hGCGR-hFc [5]): 1.2e+06 M⁻¹ s⁻¹
Kd (mfGCGR-hFc [6]): 0.0238 nM
T½ (mfGCGR-hFc [6]): 4.6 h
koff (mfGCGR-hFc [6]): 4.18e-05 s⁻¹
kon (mfGCGR-hFc [6]): 1.76e+06 M⁻¹ s⁻¹
IC50, inhibition of 100 pM GCG-stimulated luciferase activity, mGCGR reporter cells [7]: 1.13 nM
IC50, inhibition of 100 pM GCG-stimulated luciferase activity, rat GCGR reporter cells [8]: 1.21 nM
IC50, inhibition of 100 pM GCG-stimulated luciferase activity, hGCGR reporter cells [9]: 0.27 nM
IC50, inhibition of 100 pM GCG-stimulated luciferase activity, mfGCGR reporter cells [10]: 4.03 nM
